{"source": "patent US6004793", "system": "AvaI restriction endonuclease (recombinant) V1M (start codon GTG changed to ATG) (Anabaena variabilis)", "assay": "cleavage_in_vitro", "conditions": "extract of ER2504 [pLG-BsoBIM, pLysS, pAII17-AvaIR]; lambda DNA digestion; recognition site not given"}
{"substance": "bacteriophage lambda DNA", "values": [{"measurement": "activity (units/g wet cells)", "value": "6.4e+06"}]}
